Experimental data from US9018171B2, “Uses of an immunomodulatory protein (GMI) from Ganoderma microsporum” (Mycomagic Biotechnology Co., Ltd., priority 2010, dated 2015).
Like-named read-outs stand apart in the source and are kept apart here.

Legend:
[1] = tested on: Akt; experiment: Western blotting, EGF-induced phosphorylation; assay type: cell-based, human; details: A549 cells, pretreated 8 h, EGF 10 minutes
Experimental: (§1) A549 cells (5×10^5 cells/60 mm) were pretreated with various concentrations of GMI (4, 16 μg/ml) or AG1478 (EGFR inhibitors) for 8 hours prior to incubation for 10 minutes with EGF (as indicated). Cell lysates were subject to immunoblotting with phospho-specific EGFR (Y1068) (A and B), anti-phospho-AKT (A), anti-AKT (A), anti-phospho-GSK3β (A) or anti-phospho-STAT3 antibodies (B). Protein loading was determined by Western blotting against β-actin (A and B).
(§2) Total cell lysates were prepared in RIPA buffer (100 μl in 60 mm in dish). Fifty μg of lysate were loaded onto an 8% polyacrylamide gel and analyzed by SDS gel electrophoresis. After transfer to PVDF (Amersham), blots were blocked with 5% skim milk in TBS (10 mM Tris-CL pH7.5, 150 mM NaCl) containing 0.2% Tween-20. Blots were probed with antibodies (at their recommended dilutions) in 5% skim milk in TBS overnight at 4° C. Following detection with the appropriate horseradish-peroxidase conjugated secondary antibody (Cell Signaling), blots were developed by enhanced chemiluminescence according to the manufacturer's directions (Perkin Elmer Life Sciences). All experiments were performed in duplicate.
(§3) To assess whether GMI mediates and/or inhibits phosphorylation of Akt and Stat3, the invention investigated the effect of GMI on the phosphorylation status of Akt and Stat3 in A549 cells treated with various concentrations of GMI for 8 h.

[2] = tested on: EGFR; experiment: Western blotting, EGF-induced phosphorylation; assay type: cell-based, human; details: A549 cells, pretreated 8 h, EGF 10 minutes
Experimental: as §1, §2, §3

[3] = tested on: Stat3; experiment: Western blotting, EGF-induced phosphorylation; assay type: cell-based, human; details: A549 cells, pretreated 8 h, EGF 10 minutes
Experimental: as §1, §2, §3

[4] = tested on: HL-60(TB); assay type: cell-based
[5] = tested on: A549/ATCC; assay type: cell-based
[6] = tested on: NCI-H226; assay type: cell-based
[7] = tested on: COLO 205; experiment: NCI60 in vitro screening, Colon Cancer; assay type: cell-based
[8] = tested on: HCC-2998; experiment: NCI60 in vitro screening, Colon Cancer; assay type: cell-based
[9] = tested on: HCT-116; experiment: NCI60 in vitro screening, Colon Cancer; assay type: cell-based
[10] = tested on: HCT-15; experiment: NCI60 in vitro screening, Colon Cancer; assay type: cell-based
[11] = tested on: SF-268; experiment: NCI60 in vitro screening, CNS Cancer; assay type: cell-based
[12] = tested on: SK-MEL-28; experiment: NCI60 in vitro screening, Melanoma; assay type: cell-based
[13] = tested on: SN12C; experiment: NCI60 in vitro screening, Renal Cancer; assay type: cell-based
[14] = tested on: PC-3; experiment: NCI60 in vitro screening, Prostate Cancer; assay type: cell-based
[15] = tested on: SK-MEL-2; experiment: NCI60 in vitro screening, Melanoma; assay type: cell-based; details: SK-MEL-2, one dose
[16] = tested on: BT-549

B1: GMI: immunomodulatory protein from Ganoderma microsporum, amino acid sequence SEQ ID NO: 3, manufactured by Mycomagic Biotechnology Co., Ltd. (protein, listed as Ganoderma microsporum)
chain: MSDTALIFTLAWNVKQLAFDYTPNWGRGRPSSFIDTVTFPTVLTDKAYTYRVVVSGKDLGVRPSYAVESDGSQKINFLEYNSGYGIADTNTIQVYVIDPDTGNNFIVAQWN
- EGF-induced activation (phosphorylation) of Akt [1]: significantly inhibits
- EGF-induced activation (phosphorylation) of EGFR [2]: significantly inhibits
- EGF-induced activation (phosphorylation) of Stat3 [3]: little effect
- TGI [4]: >1.25E2
- Percent Growth ([4]; Log10 Concentration 0.1): 105%
- Percent Growth ([4]; Log10 Concentration 1.1): 105%
- Percent Growth ([4]; Log10 Concentration 2.1): 92%
- Percent Growth ([4]; Log10 Concentration −0.9): 99%
- Percent Growth ([4]; Log10 Concentration −1.9): 100%
- Growth Percent ([4]; one dose): 116.48%
- TGI [5]: >1.25E2
- Percent Growth ([5]; Log10 Concentration 0.1): 94%
- Percent Growth ([5]; Log10 Concentration 1.1): 51%
- Percent Growth ([5]; Log10 Concentration 2.1): 8%
- Percent Growth ([5]; Log10 Concentration −0.9): 99%
- Percent Growth ([5]; Log10 Concentration −1.9): 102%
- GI50 ([5]; in µg/mL): 1.31E1
- Growth Percent ([5]; one dose): 44.29%
- TGI ([6]; NCI-H226): >1.25E2
- Percent Growth ([6]; NCI-H226, Log10 Concentration 0.1): 101%
- Percent Growth ([6]; NCI-H226, Log10 Concentration 1.1): 65%
- Percent Growth ([6]; NCI-H226, Log10 Concentration 2.1): 23%
- Percent Growth ([6]; NCI-H226, Log10 Concentration −0.9): 99%
- Percent Growth ([6]; NCI-H226, Log10 Concentration −1.9): 100%
- Growth Percent ([6]; NCI-H226, one dose): 83.77%
- GI50 ([6]; NCI-H226, in µg/mL): 2.90E1
- TGI ([7]; COLO 205): >1.25E2
- Percent Growth ([7]; COLO 205, Log10 Concentration 0.1): 100%
- Percent Growth ([7]; COLO 205, Log10 Concentration 1.1): 95%
- Percent Growth ([7]; COLO 205, Log10 Concentration 2.1): 95%
- Percent Growth ([7]; COLO 205, Log10 Concentration −0.9): 98%
- Percent Growth ([7]; COLO 205, Log10 Concentration −1.9): 95%
- Growth Percent ([7]; COLO 205, one dose): 105.56%
- TGI ([8]; HCC-2998): >1.25E2
- Percent Growth ([8]; HCC-2998, Log10 Concentration 0.1): 105%
- Percent Growth ([8]; HCC-2998, Log10 Concentration 1.1): 93%
- Percent Growth ([8]; HCC-2998, Log10 Concentration 2.1): 88%
- Percent Growth ([8]; HCC-2998, Log10 Concentration −0.9): 99%
- Percent Growth ([8]; HCC-2998, Log10 Concentration −1.9): 103%
- Growth Percent ([8]; HCC-2998, one dose): 132.04%
- TGI ([9]; HCT-116): >1.25E2
- Percent Growth ([9]; HCT-116, Log10 Concentration 0.1): 101%
- Percent Growth ([9]; HCT-116, Log10 Concentration 1.1): 103%
- Percent Growth ([9]; HCT-116, Log10 Concentration 2.1): 104%
- Percent Growth ([9]; HCT-116, Log10 Concentration −0.9): 105%
- Percent Growth ([9]; HCT-116, Log10 Concentration −1.9): 98%
- Growth Percent ([9]; HCT-116, one dose): 101.77%
- TGI ([10]; HCT-15): 5.26E1
- Percent Growth ([10]; HCT-15, Log10 Concentration 0.1): 94%
- Percent Growth ([10]; HCT-15, Log10 Concentration 1.1): 52%
- Percent Growth ([10]; HCT-15, Log10 Concentration 2.1): −31%
- Percent Growth ([10]; HCT-15, Log10 Concentration −0.9): 97%
- Percent Growth ([10]; HCT-15, Log10 Concentration −1.9): 97%
- Growth Percent ([10]; HCT-15, one dose): 33.64%
- GI50 ([10]; HCT-15, in µg/mL): 1.31E1
- TGI ([11]; SF-268): >1.25E2
- Percent Growth ([11]; SF-268, Log10 Concentration 0.1): 108%
- Percent Growth ([11]; SF-268, Log10 Concentration 1.1): 52%
- Percent Growth ([11]; SF-268, Log10 Concentration 2.1): 4%
- Percent Growth ([11]; SF-268, Log10 Concentration −0.9): 101%
- Percent Growth ([11]; SF-268, Log10 Concentration −1.9): 95%
- Growth Percent ([11]; SF-268, one dose): 39.72%
- GI50 ([11]; SF-268, in µg/mL): 2.02E1
- TGI ([12]; SK-MEL-28): >1.25E2
- Percent Growth ([12]; SK-MEL-28, Log10 Concentration 0.1): 110%
- Percent Growth ([12]; SK-MEL-28, Log10 Concentration 1.1): 98%
- Percent Growth ([12]; SK-MEL-28, Log10 Concentration 2.1): 72%
- Percent Growth ([12]; SK-MEL-28, Log10 Concentration −0.9): 103%
- Percent Growth ([12]; SK-MEL-28, Log10 Concentration −1.9): 98%
- Growth Percent ([12]; SK-MEL-28, one dose): 106.96%
- TGI [13]: >1.25E2
- Percent Growth ([13]; Log10 Concentration 0.1): 99%
- Percent Growth ([13]; Log10 Concentration 1.1): 81%
- Percent Growth ([13]; Log10 Concentration 2.1): 30%
- Percent Growth ([13]; Log10 Concentration −0.9): 104%
- Percent Growth ([13]; Log10 Concentration −1.9): 102%
- GI50 ([13]; in µg/mL): 5.05E1
- Growth Percent ([13]; one dose): 74.30%
- TGI ([14]; PC-3): 3.87E1
- Percent Growth ([14]; PC-3, Log10 Concentration 0.1): 98%
- Percent Growth ([14]; PC-3, Log10 Concentration 1.1): 73%
- Percent Growth ([14]; PC-3, Log10 Concentration 2.1): −76%
- Percent Growth ([14]; PC-3, Log10 Concentration −0.9): 102%
- Percent Growth ([14]; PC-3, Log10 Concentration −1.9): 104%
- Growth Percent ([14]; PC-3, one dose): 79.73%
- GI50 ([14]; PC-3, in µg/mL): 1.79E1
- LC50 ([14]; PC-3, in µg/mL): 8.34E1
- Growth Percent [15]: 105.92%
- LC50 [16]: 7.24E1
- TGI ([16]; BT-549): 2.27E1
- Percent Growth ([16]; BT-549, Log10 Concentration 0.1): 100%
- Percent Growth ([16]; BT-549, Log10 Concentration 1.1): 26%
- Percent Growth ([16]; BT-549, Log10 Concentration 2.1): −74%
- Percent Growth ([16]; BT-549, Log10 Concentration −0.9): 98%
- Percent Growth ([16]; BT-549, Log10 Concentration −1.9): 104%
- Growth Percent ([16]; BT-549, one dose): −74.30%
- GI50 ([16]; BT-549, in µg/mL): 5.89E0
